Assay results published in patent US20220380459A1.

Key:
human CD33 R69G (human) = human CD33 R69G (human) (UniProt P20138); assay: SPR, Fab captured, 37C
human CD33 S128N (human) = human CD33 S128N (human) (UniProt P20138); assay: SPR, Fab captured, 37C
human CD33 S128N (human), sequence (P20138 18-259 S128N): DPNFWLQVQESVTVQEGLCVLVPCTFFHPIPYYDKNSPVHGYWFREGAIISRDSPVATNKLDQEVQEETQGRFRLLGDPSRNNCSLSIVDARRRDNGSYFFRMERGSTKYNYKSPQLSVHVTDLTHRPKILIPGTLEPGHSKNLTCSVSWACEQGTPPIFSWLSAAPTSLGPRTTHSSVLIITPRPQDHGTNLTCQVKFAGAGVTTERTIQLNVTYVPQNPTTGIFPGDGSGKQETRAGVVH

human CD33 R69G (human), sequence (P20138 18-259 R69G): as the sequence (P20138 18-259 S128N) above, with R52G, N111S counted along it

| Binder | kon (human CD33 R69G (human)) | Kd (human CD33 R69G (human)) | koff (human CD33 R69G (human)) | Kd (human CD33 S128N (human)) | koff (human CD33 S128N (human)) | kon (human CD33 S128N (human)) |
| --- | --- | --- | --- | --- | --- | --- |
| ADI-10177 Fab (Fab, V domains shown) VH: EVQLVESGGGLVQPGGSLRLSCAASGFTFSSYWMSWVRQAPGKGLEWVANIKQDGSEKYYVDSVKGRFTISRDNAKNSLYLQMNSLRAEDTAVYYCARPLNAGELDVWGQGTMVTVSS VL: DIQMTQSPSTLSASVGDRVTITCRASQSISSWLAWYQQKPGKAPKLLIYEASSLESGVPSRFSGSGSGTEFTLTISSLQPDDFATYYCQQLESYPLTFGGGTKVEIK | 230000 M⁻¹ s⁻¹ | – | – | – | – | – |
| ADI-11807 Fab (Fab, V domains shown) VH: EVQLVESGGGLVQPGGSLRLSCAASGFTFGSYWMSWVRQAPGKGLEWVATIKQDGSEKSYVDSVKGRFTISRDNAKNSLYLQMNSLRAEDTAVYYCARPLNAGELDVWGQGTMVTVSS VL: DIQMTQSPSTLSASVGDRVTITCRASQSISSWLAWYQQKPGKAPKLLIYEASSLESGVPSRFSGSGSGTEFTLTISSLQPDDFATYYCQQSQSYPPITFGGGTKVEIK | 597000 M⁻¹ s⁻¹ | 0.43 nM | 0.000259 s⁻¹ | – | – | – |
| ADI-11815 Fab (Fab, V domains shown) VH: QVQLVQSGAEVKKPGASVKVSCKASGYTFGTYYMHWVRQAPGQGLEWMGIINPSRGSTVYAQKFQGRVTMTRDTSTSTVYMELSSLRSEDTAVYYCARGAGYDDEDMDVWGKGTTVTVSS VL: DIQMTQSPSSVSASVGDRVTITCRASQGIDSWLAWYQQKPGKAPKLLIYAASSLQSGVPSRFSGSGSGTDFTLTISSLQPEDFATYYCQQAHSYPLTFGGGTKVEIK | 300000 M⁻¹ s⁻¹ | 4.34 nM | 0.0013 s⁻¹ | – | – | – |
| ADI-11812 Fab (Fab, V domains shown) VH: QVQLVQSGAEVKKPGASVKVSCKASGYTFEIYYMHWVRQAPGQGLEWMGIINPSSGSTVYAQKFQGRVTMTRDTSTSTVYMELSSLRSEDTAVYYCARGAGYDDEDMDVWGKGTTVTVSS VL: DIQMTQSPSSVSASVGDRVTITCRASQGIDSWLAWYQQKPGKAPKLLIYAASSLQSGVPSRFSGSGSGTDFTLTISSLQPEDFATYYCQQAHSYPLTFGGGTKVEIK | 338000 M⁻¹ s⁻¹ | 6.74 nM | 0.00228 s⁻¹ | 2.01 nM | 0.00112 s⁻¹ | 556000 M⁻¹ s⁻¹ |
| ADI-11809 Fab (Fab, V domains shown) VH: EVQLVESGGGLVQPGGSLRLSCAASGFTFPSYWMSWVRQAPGKGLEWVATIKRDGSEKGYVDSVKGRFTISRDNAKNSLYLQMNSLRAEDTAVYYCARPLNAGELDVWGQGTMVTVSS VL: DIQMTQSPSTLSASVGDRVTITCRASQSISSWLAWYQQKPGKAPKLLIYEASSLESGVPSRFSGSGSGTEFTLTISSLQPDDFATYYCQQSQSYPPITFGGGTKVEIK | 815000 M⁻¹ s⁻¹ | 0.22 nM | 0.000179 s⁻¹ | – | – | – |
| ADI-10157 Fab (Fab, V domains shown) VH: QVQLQESGPGLVKPSETLSLTCTVSGGSISSYYWSWIRQPPGKGLEWIGSIYYSGSTNYNPSLKSRVTISVDTSKNQFSLKLSSVTAADTAVYYCARVGGVYSTIETYGMDVWGQGTTVTVSS VL: EIVMTQSPATLSVSPGERATLSCRASQSVSSNLAWYQQKPGQAPRLLIYGASTRATGIPARFSGSGSGTEFTLTISSLQSEDFAVYYCQQYTVYPPTFGGGTKVEIK | 1.56e+06 M⁻¹ s⁻¹ | 17.8 nM | 0.0287 s⁻¹ | 163 nM | 0.00924 s⁻¹ | 56500 M⁻¹ s⁻¹ |
| ADI-10161 Fab (Fab, V domains shown) VH: EVQLVESGGGLVQPGGSLRLSCAASGFTFSSYWMSWVRQAPGKGLEWVANINQDGSEKYYVDSVKGRFTISRDNAKNSLYLQMNSLRAEDTAVYYCAREGGDSWYHAFDIWGQGTMVTVSS VL: DIQMTQSPSSVSASVGDRVTITCRASQGISSWLAWYQQKPGKAPKLLIYAASNLQSGVPSRFSGSGSGTDFTLTISSLQPEDFATYYCQQKLSLPLTFGGGTKVEIK | 629000 M⁻¹ s⁻¹ | 48.9 nM | 0.0307 s⁻¹ | 63.6 nM | 0.0385 s⁻¹ | 605000 M⁻¹ s⁻¹ |
| ADI-11839 Fab (Fab, V domains shown) VH: QVQLVQSGAEVKKPGASVKVSCKASGYTFSNYYMHWVRQAPGQGLEWMGWINPFSGGTRYAQKFQGRVTMTRDTSTSTVYMELSSLRSEDTAVYYCARDVGSSAYYYMDVWGKGTTVTVSS VL: DIQMTQSPSSVSASVGDRVTITCEASKGISSWLAWYQQKPGKAPKLLIYAASDLQSGVPSRFSGSGSGTDFTLTISSLQPEDFATYYCQQAFLFPPTFGGGTKVEIK | – | – | – | 29.5 nM | 0.0284 s⁻¹ | 963000 M⁻¹ s⁻¹ |
| ADI-11830 Fab (Fab, V domains shown) VH: EVQLVESGGGLVQPGGSLRLSCAASGFTFSSYWMSWVRQAPGKGLEWVANINTDGSEVYYVDSVKGRFTISRDNAKNSLYLQMNSLRAEDTAVYYCARDVGPGIAYQGHFDYWGQGTLVTVSS VL: DIQMTQSPSSLSASVGDRVTITCRASQVIYSYLNWYQQKPGKAPKLLIYAASSLKSGVPSRFSGSGSGTDFTLTISSLQPEDFATYYCQQVYDTPLTFGGGTKVEIK | 2.27e+06 M⁻¹ s⁻¹ | 2.94 nM | 0.00663 s⁻¹ | – | – | – |
| ADI-11826 Fab (Fab, V domains shown) VH: EVQLVESGGGLVQPGGSLRLSCAASGFTFPGYWMSWVRQAPGKGLEWVANINQDGSEVYYVDSVKGRFTISRDNAKNSLYLQMNSLRAEDTAVYYCAREANYYGNVGDDYWGQGTLVTVSS VL: DIQMTQSPSSLSASVGDRVTITCRASQSIYNYLNWYQQKPGKAPKLLIYAASSTQSGVPSRFSGSGSGTDFTLTISSLQPEDFATYYCQQAFHVPITFGGGTKVEIK | 1.89e+06 M⁻¹ s⁻¹ | 3.83 nM | 0.00723 s⁻¹ | 2.65 nM | 0.00574 s⁻¹ | 2.17e+06 M⁻¹ s⁻¹ |
| ADI-11828 Fab (Fab, V domains shown) VH: EVQLVESGGGLVQPGGSLRLSCAASGFTFSSYWMSWVRQAPGKGLEWVANINQDGSEVYYVDSVKGRFTISRDNAKNSLYLQMNSLRAEDTAVYYCARDVGPGIAYQGHFDYWGQGTLVTVSS VL: DIQMTQSPSSLSASVGDRVTITCRASQSIYYYLNWYQQKPGKAPKLLIYAASSRQSGVPSRFSGSGSGTDFTLTISSLQPEDFATYYCQQVYDTPLTFGGGTKVEIK | 1.16e+06 M⁻¹ s⁻¹ | 6.03 nM | 0.007 s⁻¹ | 5.41 nM | 0.00742 s⁻¹ | 1.37e+06 M⁻¹ s⁻¹ |
| ADI-11825 Fab (Fab, V domains shown) VH: EVQLVESGGGLVQPGGSLRLSCAASGFTFGGYWMSWVRQAPGKGLEWVANINQDGSEEYYVDSVKGRFTISRDNAKNSLYLQMNSLRAEDTAVYYCAREANYYGNVGDDYWGQGTLVTVSS VL: DIQMTQSPSSLSASVGDRVTITCRASQSIYNYLNWYQQKPGKAPKLLIYAASNLHSGVPSRFSGSGSGTDFTLTISSLQPEDFATYYCQQAFHVPITFGGGTKVEIK | 1.86e+06 M⁻¹ s⁻¹ | 3.74 nM | 0.00695 s⁻¹ | 3.09 nM | 0.00649 s⁻¹ | 2.1e+06 M⁻¹ s⁻¹ |
| ADI-10159 Fab (Fab, V domains shown) VH: EVQLVESGGGLVQPGGSLRLSCAASGFTFSSYGMSWVRQAPGKGLEWVANIKQDGSEKYYVDSVKGRFTISRDNAKNSLYLQMNSLRAEDTAVYYCAREGGPYYDSSGYFVYYGMDVWGQGTTVTVSS VL: DIQMTQSPSTLSASVGDRVTITCRASQSISSWLAWYQQKPGKAPKLLIYDASSLESGVPSRFSGSGSGTEFTLTISSLQPDDFATYYCQQYESFPTFGGGTKVEIK | 426000 M⁻¹ s⁻¹ | 5.68 nM | 0.00243 s⁻¹ | – | – | – |
| ADI-11819 Fab (Fab, V domains shown) VH: EVQLVESGGGLVKPGGSLRLSCAASGFTFSSYAMSWVRQAPGKGLEWVSSISSSSEGIYYADSVKGRFTISRDNAKNSLYLQMNSLRAEDTAVYYCAREGGPYYDSSGYFVYYGMDVWGQGTTVTVSS VL: DIQMTQSPSTLSASVGDRVTITCRASNSISSWLAWYQQKPGKAPKLLIYEASSTKSGVPSRFSGSGSGTEFTLTISSLQPDDFATYYCQQYDDLPTFGGGTKVEIK | 2.78e+06 M⁻¹ s⁻¹ | 0.09 nM | 0.000244 s⁻¹ | – | – | – |
| ADI-11776 Fab (Fab, V domains shown) VH: EVQLLESGGGLVQPGGSLRLSCAASGFTFSKYTMSWVRQAPGKGLEWVSAIVGSGESTYFADSVKGRFTISRDNSKNTLYLQMNSLRAEDTAVYYCAREGGPYYDSSGYFVYYGMDVWGQGTTVTVSS VL: DIQMTQSPSTLSASVGDRVTITCRASQSISSWLAWYQQKPGKAPKLLIYKASSLESGVPSRFSGSGSGTEFTLTISSLQPDDFATYYCQQYDDLPTFGGGTKVEIK | 1.98e+06 M⁻¹ s⁻¹ | 0.22 nM | 0.000426 s⁻¹ | – | – | – |
| ADI-11835 Fab (Fab, V domains shown) VH: QLQLQESGPGLVKPSETLSLTCTVSGGSISSTDYYWGWIRQPPGKGLEWIGSIGYSGTYYNPSLKSRVTISVDTSKNQFSLKLSSVTAADTAVYYCARETAHDVHGMDVWGQGTTVTVSS VL: EIVLTQSPATLSLSPGERATLSCRASHSVYSYLAWYQQKPGQAPRLLIYDASNRATGIPARFSGSGSGTDFTLTISSLEPEDFAVYYCQQYDNLPTFGGGTKVEIK | 3.07e+06 M⁻¹ s⁻¹ | 0.67 nM | 0.00205 s⁻¹ | – | – | – |
